Laboratory results: the supplement of paper PMC12667976
± gives the standard error.

B1: library; numbered along this chain (parent)
chain: MATDAALRRLLRLHRTEIAVAVDSAFPLLHALADHDVVPEDKFQETLHLKEKEGCPQAFHALLSWLLTQDSTAILDFWRVLFKDYNLERYGRLQPILDSFPKDVDLSQPRKGRKPPAVPKALVPPPRLPTKRKASEEARAAAPAALTPRGTASPGSQLKAKPPKKPESSAEQQRLPLGNGIQTMSASVQRAVAMSSGDVPGARGAVEGILIQQVFESGGSKKCIQVGGEFYTPSKFEDSGSGKNKARSSSGPKPLVRAKGAQGAAPGGGEARLGQQGSVPAPLALPSDPQLHQKNEDECAVCRDGGELICCDGCPRAFHLACLSPPLREIPSGTWRCSSCLQATVQEVQPRAEEPRPQEPPVETPLPPGLRSAGEEVRGPPGEPLAGMDTTLVYKHLPAPPSAAPLPGLDSSALHPLLCVGPEGQQNLAPGARCGVCGDGTDVLRCTHCAAAFHWRCHFPAGTSRPGTGLRCRSCSGDVTPAPVEGVLAPSPARLAPGPAKDDTASHEPALHRDDLESLLSEHTFDGILQWAIQSMARPAAPFPS

Variants of: B1
Experiment: AIRE transcriptional activation functional score (insulin promoter-GFP; nonsense median 0, synonymous median 1) (normalised score); higher = higher AIRE activity (more reporter activation)
Conditions: with insulin promoter-GFP reporter in HEK293
Experimental: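 Deep mutational scan of full-length human AIRE (codon-optimized cDNA, DT-POPCode NNN libraries over three regions) integrated at a Bxb1 landing pad in HEK293 cells carrying an insulin core promoter-GFP reporter at a Flp-In site. Cells were sorted for the top 10% GFP about 14 days after transfection. Variant frequency log-ratios (select vs non-select, TileSeq) were rescaled so that the nonsense median is 0 and the synonymous median is 1, then averaged over biological replicates.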

AIRE transcriptional activation functional score: each site, then its substitutions
L63: H -0.128 ± 0.63 | N 0.0814 ± 0.2 | G 0.772 ± 0.4 | A 0.181 ± 0.47 | I 0.588 ± 0.7 | C -0.0612 ± 0.18 | V 0.617 ± 0.34 | Q -0.326 ± 0.27 | W 0.381 ± 0.093 | F 0.298 ± 0.27 | S -0.272 ± 0.55 | Y -0.421 ± 0.5 | P 0.339 ± 0.63 | D -0.402 ± 0.66 | E -1.39 ± 0.13 | R -0.0432 ± 0.48 | M -0.458 ± 0.078 | T -0.37 ± 0.2 | K -0.721 ± 0.11
Q69: F -0.0774 ± 0.21 | D 0.261 ± 0.43 | W -0.383 ± 0.21 | V -0.0416 ± 0.26 | S -0.2 ± 0.34 | E 0.0374 ± 0.17 | I -0.279 ± 0.22 | Y 0.498 ± 0.32 | G 0.383 ± 0.3 | H -0.135 ± 0.25 | C 0.105 ± 0.28 | L -0.119 ± 0.37 | A 0.0258 ± 0.39 | P 0.118 ± 0.37 | M -0.732 ± 0.14 | T -0.236 ± 0.32 | N -0.248 ± 0.65 | K 0.102 ± 0.77 | R 1.15 ± 0.56
A73: E 0.775 ± 0.12 | F 0.15 ± 0.087 | C 0.629 ± 0.31 | W -0.767 ± 0.23 | I 1.33 ± 0.14 | H 2.12 ± 0.25 | N -0.949 ± 0.43 | S 0.179 ± 0.56 | V 1.1 ± 0.32 | R 1.26 ± 0.79 | P 0.676 ± 0.44 | L 0.61 ± 0.97 | Q -1.02 ± 0.79 | G -0.592 ± 0.48 | Y 0.555 ± 0.91 | D -0.0868 ± 0.094 | T 1.01 ± 0.13
L66: I 0.885 ± 0.42 | S -0.186 ± 0.46 | W 0.0325 ± 0.056 | F -0.101 ± 0.092 | G -0.202 ± 0.45 | D -0.102 ± 0.6 | E -0.037 ± 0.99 | N -0.299 ± 0.66 | H 0.316 ± 0.2 | A 0.62 ± 0.47 | Y 0.687 ± 0.4 | Q 0.233 ± 0.26 | V 0.121 ± 0.2 | R -0.171 ± 0.6 | T -0.0651 ± 0.43 | P 0.349 ± 0.9 | M 0.0543 ± 0.14 | C -0.733 ± 0.54 | K -0.126 ± 0.13
S71: R 0.321 ± 0.53 | L -0.359 ± 0.47 | T 1.05 ± 0.065 | D 1.61 ± 0.27 | P -0.532 ± 0.41 | G 0.809 ± 0.75 | K 1.2 ± 0.25 | F 0.353 ± 0.15 | N 0.235 ± 0.16 | I 0.605 ± 0.47 | H 1.32 ± 0.71 | V 0.229 ± 0.31 | A 1.08 ± 0.21 | Q 2.02 ± 0.16 | W -0.0187 ± 0.13 | E 1.17 ± 0.4 | M 0.472 ± 0.059 | Y 1.52 ± 1.2 | C 0.858 ± 0.3
F77: I 0.0486 ± 0.17 | N -0.429 ± 1 | M 0.136 ± 0.39 | C 0.198 ± 0.17 | A 0.257 ± 0.36 | D -0.0172 ± 0.53 | G -0.0629 ± 0.48 | L -0.0762 ± 0.36 | K 0.21 ± 0.52 | H 0.528 ± 0.61 | E 0.445 ± 0.46
I74: C 0.295 ± 0.23 | G 0.496 ± 0.28 | F -0.0221 ± 0.088 | A 0.186 ± 0.47 | Q 0.136 ± 0.17 | D 0.058 ± 0.41 | N -0.347 ± 0.074 | L 0.0101 ± 0.28 | S -0.0735 ± 0.31 | R -0.00714 ± 0.54 | Y 0.19 ± 0.07 | T -0.246 ± 0.34 | H 0.604 ± 0.27 | K 0.384 ± 0.13 | M 0.0325 ± 0.12 | W 0.39 ± 0.23 | E -0.548 ± 0.08 | V 0.51 ± 0.27 | P 0.409 ± 0.41
W65: G 0.22 ± 0.48 | F 0.122 ± 0.3 | Q -0.357 ± 0.56 | D -1.55 ± 0.86 | A -0.93 ± 1.4 | H 0.542 ± 0.72 | M -0.0554 ± 0.18 | T 1.03 ± 0.31 | V -0.0047 ± 0.31 | P -0.233 ± 0.91 | Y -0.365 ± 0.21 | E 0.0731 ± 0.092 | S 0.269 ± 0.64 | L 0.2 ± 0.59 | I -0.311 ± 0.42 | K 0.535 ± 0.13 | C 0.469 ± 0.22 | N 0.316 ± 0.17 | R -0.313 ± 0.32
T72: R 0.0611 ± 0.49 | L 0.84 ± 0.8 | S 0.667 ± 0.79 | D 2.22 ± 1.8 | K 1.59 ± 0.38 | I 0.104 ± 0.57 | H 1.39 ± 0.13 | V 1.28 ± 0.59 | N 1.15 ± 0.55 | G 0.0759 ± 0.77 | P 0.606 ± 0.35 | A 1.01 ± 0.49 | W 0.0941 ± 0.059 | F 0.964 ± 0.3 | C 0.562 ± 0.31 | Y 0.224 ± 0.76
L75: Y 1.52 ± 0.12 | A 0.288 ± 0.19 | C 0.732 ± 0.28 | G 0.82 ± 0.23 | S 0.842 ± 0.35 | M 0.71 ± 0.18 | D -0.0941 ± 0.23 | P -0.233 ± 0.32 | H 0.935 ± 1.1 | R 0.518 ± 0.39 | V 1.31 ± 0.33 | N 1.01 ± 0.29 | W 2.01 ± 0.082 | E -0.603 ± 0.18 | Q 0.0287 ± 0.28 | T 1.46 ± 0.32 | K 0.732 ± 0.062 | F 0.688 ± 0.28 | I 1.13 ± 0.5
L62: E -0.679 ± 0.41 | W 0.305 ± 0.099 | I -0.601 ± 0.32 | S 0.0796 ± 0.81 | H -0.594 ± 0.34 | R -0.00966 ± 0.95 | M 0.558 ± 0.11 | D -0.0278 ± 0.14 | V 0.0204 ± 0.24 | P -0.295 ± 0.47 | N 0.232 ± 0.31 | T -0.152 ± 0.78 | K -0.404 ± 0.34 | Y 0.0998 ± 0.29 | F -0.766 ± 0.19 | C 0.584 ± 0.15 | Q 0.0502 ± 0.23 | G -0.253 ± 0.25 | A -0.0777 ± 0.31
D76: I 0.22 ± 0.4 | M 2.3 ± 0.11 | V 0.795 ± 0.29 | S 0.371 ± 0.14 | F -0.202 ± 0.69 | L 0.535 ± 0.84 | G -0.331 ± 0.51 | A 0.43 ± 0.44 | Y 0.302 ± 0.36 | H 0.235 ± 0.16 | E 0.132 ± 0.51 | R 0.463 ± 0.69 | W 0.516 ± 0.083 | N -0.077 ± 0.96 | C 0.409 ± 0.76 | T 0.0165 ± 0.26
H60: C -0.27 ± 0.15 | N 0.179 ± 0.12 | W 0.431 ± 0.35 | D -0.0281 ± 0.26 | G 0.0323 ± 0.62 | V -0.0783 ± 0.37 | K -0.424 ± 0.78 | T 0.117 ± 0.24 | M 0.414 ± 0.035 | L -0.135 ± 0.34 | I 0.216 ± 0.5 | S -0.00297 ± 0.25 | A -0.135 ± 0.21 | F 1.06 ± 0.24 | Y 0.332 ± 0.24 | E -0.56 ± 0.42 | R 0.0862 ± 0.41 | Q 0.338 ± 0.4 | P -0.793 ± 0.31
T68: D -0.277 ± 0.067 | S 0.804 ± 0.35 | N 0.581 ± 0.61 | L 0.729 ± 0.36 | E -2.1 ± 0.14 | W -0.374 ± 0.096 | R 0.304 ± 0.66 | C 0.77 ± 0.18 | P 0.108 ± 0.16 | Y 0.495 ± 0.42 | M 0.985 ± 0.062 | F -0.0989 ± 0.12 | G 0.848 ± 0.95 | A 0.312 ± 0.28 | Q -1.24 ± 0.071 | K 0.868 ± 0.12 | I -0.358 ± 0.46 | V 0.624 ± 0.46 | H 0.424 ± 0.27
L67: Q -0.874 ± 0.39 | W 0.0659 ± 0.065 | M 0.554 ± 0.29 | P -0.378 ± 0.59 | K 0.25 ± 0.13 | C -0.405 ± 0.18 | E -0.592 ± 0.38 | R -0.769 ± 0.77 | D 0.698 ± 0.24 | A 0.0875 ± 0.38 | T -0.29 ± 0.49 | V 0.638 ± 0.51 | S -0.0517 ± 0.24 | G -0.0868 ± 0.65 | I 0.391 ± 0.42 | N 0.265 ± 0.11 | F -0.0388 ± 0.21 | H 0.742 ± 0.33 | Y 0.237 ± 0.24
F59: Q -1.19 ± 0.16 | S 0.2 ± 0.44 | T 0.102 ± 0.45 | Y -0.0924 ± 0.19 | R -0.191 ± 0.58 | W 0.208 ± 0.13 | V 0.903 ± 0.24 | P 0.0711 ± 0.28 | N -0.0761 ± 0.11
D70: E 0.94 ± 0.4 | N 0.992 ± 0.43 | H -0.0845 ± 0.37 | F -0.152 ± 0.57 | M -0.516 ± 0.19 | I 0.395 ± 0.96 | T 0.428 ± 0.28 | R 0.35 ± 0.4 | A -0.203 ± 0.38 | W -0.512 ± 0.13 | L -0.362 ± 0.63 | Q 0.436 ± 0.49 | Y -0.642 ± 0.49 | C 0.296 ± 0.14 | V -0.0452 ± 0.4 | S 2.47 ± 0.55 | K 2.05 ± 0.09 | P -0.549 ± 0.45 | G 0.895 ± 0.36
A61: W 1.46 ± 0.13 | R 0.646 ± 0.67 | D 0.176 ± 0.057 | E 0.619 ± 0.68 | P -0.68 ± 0.6 | H 1.26 ± 0.14 | G 0.214 ± 0.29 | C -0.153 ± 0.5 | Q 0.472 ± 0.21 | L -0.166 ± 0.57 | I -0.471 ± 0.2 | N 0.59 ± 0.081 | S 1.48 ± 0.25 | T 0.573 ± 0.52 | Y -0.0286 ± 0.38 | M 0.552 ± 0.27 | F 0.26 ± 0.071 | V 0.328 ± 0.53
S64: W 0.42 ± 0.18 | Y 0.513 ± 0.21 | M -0.0813 ± 0.17 | H 0.583 ± 0.12 | G 0.447 ± 0.49 | V -0.0585 ± 0.4 | I -0.0655 ± 0.31 | P 0.795 ± 0.47 | E -0.72 ± 0.23 | F 0.0385 ± 0.17 | D -0.252 ± 0.077 | R -0.473 ± 0.57 | C -0.513 ± 0.2 | T 0.485 ± 0.82 | K -0.37 ± 0.16 | N 0.278 ± 0.14 | A -0.0317 ± 0.36 | L -0.114 ± 0.42 | Q -0.939 ± 0.095
